The results in this text go back to FireProtDB (doi:10.1002/pro.5560070228).

Where “and” joins values, the source holds several entries; their conditions need not be identical. Equal values may be shown once.

For this data set the following is noted: Escherichia coli (strain K12), pH 7, Potassium phosphate 50 mM, KCl 100 mM, reversible: yes.

Cold shock protein CspA wild type, P0A9X9, sequence (P0A9X9 whole entry): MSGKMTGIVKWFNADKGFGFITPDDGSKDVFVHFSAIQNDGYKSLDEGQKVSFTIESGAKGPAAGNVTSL

Take “Cold shock protein CspA wild type, P0A9X9”: the denaturant m value is, setting by setting: (10 °C, GdnHCl, Fluorescence) 1.7 kcal/mol/M and 2.4 kcal/mol/M and 2.1 kcal/mol/M; (10 °C, Urea, Fluorescence) 0.59 kcal/mol/M and 0.66 kcal/mol/M and 0.64 kcal/mol/M; (25 °C, GdnHCl, CD) 1.7 kcal/mol/M and 2.9 kcal/mol/M and 2.1 kcal/mol/M; (25 °C, GdnHCl, Fluorescence) 2.2 kcal/mol/M and 2 kcal/mol/M; (25 °C, Urea, CD) 0.6 kcal/mol/M and 0.7 kcal/mol/M; (25 °C, Urea, Fluorescence) 0.71 kcal/mol/M and 0.69 kcal/mol/M and 0.78 kcal/mol/M. Also, the “denaturant midpoint (higher = more stable)” value reads like this: (10 °C, GdnHCl, Fluorescence) 1.8 M and 1.6 M; (10 °C, Urea, Fluorescence) 4.9 M and 5 M and 4.5 M; (25 °C, GdnHCl, CD) 1.5 M and 1.3 M and 1.6 M; (25 °C, GdnHCl, Fluorescence) 1.4 M and 1.6 M; (25 °C, Urea, CD) 4 M and 4.5 M and 4.1 M; (25 °C, Urea, Fluorescence) 4.2 M. Besides, the unfolding free energy by setting is: (10 °C, GdnHCl, Fluorescence) 3.1 kcal/mol and 3.8 kcal/mol and 3.3 kcal/mol; (10 °C, Urea, Fluorescence) 2.9 kcal/mol and 3.3 kcal/mol and 2.8 kcal/mol; (25 °C, GdnHCl, CD) 2.4 kcal/mol and 3.7 kcal/mol and 3.3 kcal/mol; (25 °C, GdnHCl, Fluorescence) 3.1 kcal/mol and 3.2 kcal/mol and 3 kcal/mol; (25 °C, Urea, CD) 2.6 kcal/mol and 3.1 kcal/mol; (25 °C, Urea, Fluorescence) 3 kcal/mol and 2.9 kcal/mol and 3.2 kcal/mol.
